In assay [1] the target is SARS-CoV-2 Omicron BA.2 RBD, aa 319-541, C-terminal 6xHis-tag (SARS-CoV-2) (UniProt P0DTC2).
Assay [2] deals with SARS-CoV-2 Omicron BA.4/5 RBD, aa 319-541, C-terminal 6xHis-tag (SARS-CoV-2) (UniProt P0DTC2).
The target in assay [3] is S protein of authentic SARS-CoV-2 Omicron BA.1 virus (SARS-CoV-2) (UniProt P0DTC2). Briefly: cell-based or functional assay.
The target of assay [4] is S protein of authentic SARS-CoV-2 Omicron BA.5 virus (SARS-CoV-2) (UniProt P0DTC2). The assay is described as follows: cell-based or functional assay.
Assay [5] concerns the target SARS-CoV-2 Omicron BA.2 RBD, aa 319-541, C-terminal 6xHis-tag (SARS-CoV-2) (UniProt P0DTC2). Briefly: ELISA, plates coated with RBD. (In general: An ELISA detects its analyte on a solid surface through an enzyme-linked reagent.)

We go through one substance from patent publication US20240209065A1.

What is called EC50 is the concentration at which the effect is half-maximal. A lower EC50 goes with greater potency.

Where two headings read alike, the source gives them in different places.

As to DXP-604 IgG (antibody), the results for the EC50 in assay [1], in assay [2] and in assay [5] were 9.48 nM, 1.6 nM and 9.48 nM, respectively. Moreover, the IC50, microneutralization assay with authentic virus in assay [3] stood at 22.9 nM; in assay [4], 12.4 nM.
